The chains are these.
T1: Pig ASGR-1 (pig)
T1 construct: Expressed on HEK 293 cells or as membrane prep on beads; cDNA GenBank NM_001244458
T1 chain: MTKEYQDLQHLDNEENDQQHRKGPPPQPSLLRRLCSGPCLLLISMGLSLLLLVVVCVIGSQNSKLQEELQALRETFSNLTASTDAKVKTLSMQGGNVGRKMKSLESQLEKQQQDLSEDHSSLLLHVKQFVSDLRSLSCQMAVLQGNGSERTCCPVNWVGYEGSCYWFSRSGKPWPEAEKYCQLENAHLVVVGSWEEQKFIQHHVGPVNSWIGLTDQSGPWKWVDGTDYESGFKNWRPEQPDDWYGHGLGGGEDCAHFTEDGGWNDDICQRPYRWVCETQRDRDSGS

T2: Human ASGR-2 (human, UniProt P07307 1-311)
T2 construct: Expressed on HEK 293 cells; cDNA GenBank NM_080913.3; also called huASGR-2; hASGR-2
T2 sequence: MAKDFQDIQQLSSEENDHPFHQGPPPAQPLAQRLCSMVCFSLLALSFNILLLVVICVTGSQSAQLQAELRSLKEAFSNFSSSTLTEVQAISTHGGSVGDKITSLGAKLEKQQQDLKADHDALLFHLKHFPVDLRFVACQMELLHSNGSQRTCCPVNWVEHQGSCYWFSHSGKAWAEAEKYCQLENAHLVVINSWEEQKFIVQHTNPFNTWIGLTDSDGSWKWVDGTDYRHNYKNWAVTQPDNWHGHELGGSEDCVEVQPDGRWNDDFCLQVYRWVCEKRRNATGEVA

B1: 6G7 (antibody, V domains shown)
VH: QVQLVESGGGVVQPGRSLRLSCAASGFTFSSYGMHWVRQTPGKGLEWVAIISYVGKNKYYADSVKGRFTISRDNSKNTLYLQMNSLRAEDTAVYYCARRGNSYGGYGMDVWGQGTTVTVSS
VL: DIQMTQSPSSRSASVGDRVTITCQASQDISNYLNWCQQKPGKALKLLIYDASTLETGVPSRFSGSGSGTDFTFTISSVQPEDIATYYCQQYDNVPITFGQGTRLEIK
notes: Tested as hybridoma supernatant at normalized concentration
B2: 193E7 (antibody, V domains shown)
VH: QVQLQQWGAGLLKPSETLSLTCAVYGGSFSGYFWTWIRQPPGKGLEWIGEINHSGSTNYNPSLKSRVTISVDTSKNQFSLKLSSVTAADTAVYYCARDYGADYWGQGTLVAVSA
VL: DIQMTQSPSSLSASVGDRVTITCRASQGIRNDLGWYQQKPGKAPKRLIYSASSLQRGVPSRFSGSGSGTEFTLTISSLQPEDFATYYCLQHKRYPLTFGGGTKVEIK
notes: as for B1
B3: 5E5 (antibody, V domains shown)
VH: QVQLVESGGGVVQPGRSLRLSCAASGFTFSNYVMHWVRQAPGKGLEWVAVIWYDGSNKYYADSVKGRFTISRDNSKNTLYLQMNSLRAEDTAVYYCTREVYSSGWYDYGMDVWGQGTTVTVSS
VL: B2 VL with S50A, R56S, K92Y, R93S, L96R, G100Q, I106V
notes: as for B1
B4: 22G5 (antibody, V domains shown)
VH: EVQLLESGGGLVQPGGSLRLSCAASGFTFSSYAMNWVRQAPGMGLEWVSVISRSGGYTYYADSVKGRFTISRDNSKNTLYLQMNSLRAEDTAVYYCASRLAVAGSEAFDIWGQGTLVTVSS
VL: DIQMTQSPSSLSASVGDRVTITCRASQNISSYLNWYQQKQGKAPKLLIYAASSLQNGVPSRFSGRGSGTDFTLTISSLQPEDFATYYCQQSYRTPLFTFGPGTKVDFK
notes: as for B1
B5: 54E9 (antibody, V domains shown)
VH: QVQLVQSGAEVKKPGASVKVSCKASGYTFNSYGISWVRLAPGQGLEWMGWISAYNGNTKNAQKLQGRVTMTTDTSTSTAYMELRSLRSDDTAVYYCARHDFWSGYYKGMDVWGQGTTVTVSS
VL: not shown
notes: as for B1

Changes are numbered by the printed parent chain.

In one test the target is T1, Pig ASGR-1. Nature of the test: FACS on transfected HEK 293 cells or membrane preps on beads; binding = signal at least 2x irrelevant IgG. The method, boiled down: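 Antibodies at normalized concentrations bound 1 h at 4° C to HEK 293 cells expressing each antigen, then Alexa Fluor 647 anti-Fc plus 7-AAD 15 min at 4° C, flow cytometry; empty-vector cells as negative. Alternatively, species ASGR-1 membrane preps on streptavidin beads, antibody 1 h RT, Alexa Fluor 488 anti-Fc; FACS buffer with 1 mM CaCl2 throughout.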
As to B1, the binding result is on record as “no binding”.

As for B2, the binding result is reported as “no binding”. B3: the binding result was “no binding”. In the case of B4, the binding result was “no binding”. For B5, the binding result was “no binding”.

Another test deals with T2, Human ASGR-2. Nature of the test: FACS on transfected HEK 293 cells; Y = signal at least 2x irrelevant IgG. The method, then:
Human ASGR-1-specific, ligand competing antibody samples were tested for binding to ASGR-1 from other species (cynomologus monkey ASGR-1, mouse ASGR-1, rat ASGR-1, dog ASGR-1, and pig ASGR-1) as well as to human ASGR-2 in FACS binding assays at normalized antibody concentrations. For cell-based assays, HEK 293 cells expressing the appropriate antigen of interest were mixed with antibody sample or controls, incubated for 1 hour at 4° C., and then washed twice. Cells with bound antibody were then incubated with Alexa Fluor® 647 IgG Fc fragment-specific detection antibody and 7-AAD viability stain for 15 minutes at 4° C., washed once and resuspended in FACS buffer. Samples were analyzed using a BD Accuri™ Flow Cytometer and an Intellicyt HyperCyt Autosampler. As a negative control, supernatants and controls were also screened against HEK 293 cells transfected with empty parental vector. […] For membrane-prep binding assays, ASGR-1 species specific membrane preps were used to coat LumAvidin® microspheres (beads) and tested for binding to selected hybridoma supernatants or controls. Briefly, ASGR-1 species specific membrane preps were incubated with streptavidin-coated LumAvidin® beads for 45 minutes in the dark at room temperature and washed twice. Beads were resuspeneded in FACS buffer containing Stabilguard®. […] Samples were analyzed using an Intellicyt iQue™ Screener Platform. […]
Regarding B1, the binding result is reported as “binds”.

The values above are taken from patent US20190248902A1 (published 2019).
